From US5837516A, “Subtilisin variants capable of cleaving substrates containing basic residues” (Genentech, Inc., priority 1995, dated 1998)
Residues, ends and D or L forms follow the SMILES beside them.

Legend:
[1] = target: T1, subtilisin BPN' variant N62D/Y104D/G166D (SEQ ID NO: 75) (Bacillus amyloliquefaciens, UniProt P00782, G273D/N169D/Y211D); experiment: Kinetic analysis, hydrolysis of succinyl-tetrapeptide-pNA substrates; assay type: biochemical; conditions: relative to succinyl-RAKR-pNA
T1 construct: the mature enzyme +1 to +275; made in house; host or cells: Bacillus subtilis BG2036 (protease-deficient), secreted
T1 sequence (P00782 108-382 N169D/Y211D/G273D): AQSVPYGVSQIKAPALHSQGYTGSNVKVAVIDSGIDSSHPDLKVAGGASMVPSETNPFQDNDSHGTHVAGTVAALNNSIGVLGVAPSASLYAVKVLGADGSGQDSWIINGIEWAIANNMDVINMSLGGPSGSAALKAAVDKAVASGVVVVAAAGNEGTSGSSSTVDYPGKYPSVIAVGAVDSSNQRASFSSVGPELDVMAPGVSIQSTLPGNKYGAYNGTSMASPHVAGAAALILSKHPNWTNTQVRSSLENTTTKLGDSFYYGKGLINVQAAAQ
Description: (§1) The mature N62D/Y104D/G166D variant was purified and analyzed for its ability to hydrolyze several tetrapeptide-pNA substrates.
(§2) Kinetic analysis of WT, N62D/G166D, and N62D/Y104D/G166D subtilisin BPN'
(§3) Subtilisins were assayed by measuring the initial rates of hydrolysis of p-nitroanilide tetrapeptide substrates in 0.4 mL 20 mM Tris-Cl pH 8.2, 4% (v/v) dimethyl sulfoxide at (25±0.2)° C. as described previously (Estell, D. A., Graycar, T. P., Miller, J. V., Powers, D. B., Burnier, J. P., Ng, P. G. and Wells, J. A. (1986)Science 233:659-663). Enzyme concentrations (E)0 were determined spectrophotometrically using E280 nm 0.1%=1.17 (Matsubara, H.; Kasper, C B.; Brown, D. M.; and Smith, E. L. (1965)J. Biol. Chem.,240:1125-1130.), and were typically 5-50 nM in reactions. Initial rates were determined for nine to twelve different substrate concentrations over the range of 0.001-2.0 mM. Plots of initial rates (v) versus substrate concentration (S) were fitted to the Michaelis-Menton equation, [formula] to determine the kinetic constants kcat and Km (Fersht, A. in "Enzyme Structure and Mechanism", Second edition, Freeman and Co., N.Y.) using the program Kaleidagraph (Synergy Software, Reading, Pa.).

[2] = target: T2, subtilisin BPN' variant N62D/G166D (mature enzyme SEQ ID NO: 72) (Bacillus amyloliquefaciens, UniProt P00782, G273D/N169D); experiment: as above; assay type: biochemical
T2 construct: made in house; host or cells: Bacillus subtilis BG2036 (protease-deficient), secreted
T2 sequence (P00782 108-382 N169D/G273D): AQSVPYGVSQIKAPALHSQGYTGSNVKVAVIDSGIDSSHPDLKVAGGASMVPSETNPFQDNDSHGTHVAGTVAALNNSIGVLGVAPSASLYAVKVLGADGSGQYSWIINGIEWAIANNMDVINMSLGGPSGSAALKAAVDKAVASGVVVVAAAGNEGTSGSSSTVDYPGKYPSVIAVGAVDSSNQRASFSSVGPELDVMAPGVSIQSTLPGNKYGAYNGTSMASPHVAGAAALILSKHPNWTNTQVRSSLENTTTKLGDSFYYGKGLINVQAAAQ
Description: as §1, §2, §3

[3] = target: T3, subtilisin BPN' variant N62D/G166E (Bacillus amyloliquefaciens, UniProt P00782, G273E/N169D); experiment: Kinetic analysis, hydrolysis of suc-AAXX-pna substrates; assay type: biochemical; conditions: Lys-Lys versus Lys-Phe substrate
T3 construct: correct folding and maturation of subtilisin requires autolytic cleavage of its propeptide; made in house; host or cells: Bacillus subtilis BG2036 (protease-deficient), secreted
Description: Despite the less than additive effects seen for the two charged substitutions in the S2 site, we decided to combine the best S2 site variant (N62D) with either of the acidic substitutions in the S1 site. The two double mutants, N62D/G166E and N62D/G166D, were analyzed with substrates having the form, suc-AAXX-pna (SEQ ID NO. 71) where XX was either KK (SEQ ID NO. 66), KR (SEQ ID NO. 67), KF (SEQ ID NO. 62), PK (SEQ ID NO. 58), PF (SEQ ID NO. 56) or AF (SEQ ID NO. 63) (FIG. 4). The wild-type preference was AF>PF^~ KF>KK^~ PK>KR, whereas the double mutants had the preference KK>KR>KF>PK^~ AF>PF. […]
as §3, with “Plots of initial rates (v) versus substrate concentration (S) were fitted to the Michaelis-Menton equation, [formula] to determine the kinetic constants kcat and Km (Fersht, A. in "Enzyme Structure and Mechanism", Second edition, Freeman and Co., N.Y.) using the program Kaleidagraph (Synergy Software, Reading, Pa.).” left out

[4] = substrate: C[C@H](NC(=O)CCC(=O)O)C(=O)N[C@@H](C)C(=O)N1CCC[C@H]1C(=O)N[C@@H](Cc1ccccc1)C(=O)Nc1ccc([N+](=O)[O-])cc1; experiment: Kinetic analysis, hydrolysis of succinyl-tetrapeptide-pNA substrates; assay type: biochemical, Bacillus amyloliquefaciens; conditions: 20 mM Tris-Cl pH 8.2, 4% DMSO, 25 C
Description: as §1, §2, §3

[5] = substrate: C[C@H](NC(=O)CCC(=O)O)C(=O)N[C@@H](C)C(=O)N[C@@H](CCCCN)C(=O)N[C@@H](CCCNC(=N)N)C(=O)Nc1ccc([N+](=O)[O-])cc1; experiment: as above; assay type: biochemical, Bacillus amyloliquefaciens; conditions: 20 mM Tris-Cl pH 8.2, 4% DMSO, 25 C
Description: as §1, §2, §3

succinyl-AAKR-pNA = target: T4, succinyl-AAKR-pNA
T4 sequence (peptide, N-terminal succinyl; C-terminal p-nitroanilide (pNA)): AAKR

succinyl-AAPF-pNA = target: T5, succinyl-AAPF-pNA
T5 sequence (peptide, N-terminal succinyl; C-terminal p-nitroanilide (pNA)): AAPF

[6] = target: T6, succinyl-Ala-Ala-Pro-Lys-pNa
T6 sequence (peptide, N-terminal succinyl; C-terminal p-nitroanilide (pNA)): AAPK

[7] = target: T7, succinyl-Ala-Ala-Lys-Lys-pNa
T7 sequence (peptide, N-terminal succinyl; C-terminal p-nitroanilide (pNA)): AAKK

[8] = target: hGH-AP fusion protein with substrate linker Asn-Leu-Met-Arg-Lys (E. coli); conditions: scale: times faster than the Thr-Ala-Ser-Arg-Arg and Asn-Leu-Thr-Ala-Arg fusions
[9] = substrate: C[C@H](NC(=O)[C@H](CCCNC(=N)N)NC(=O)CCC(=O)O)C(=O)N[C@@H](CCCCN)C(=O)N[C@@H](CCCNC(=N)N)C(=O)Nc1ccc([N+](=O)[O-])cc1; experiment: Kinetic analysis, hydrolysis of succinyl-tetrapeptide-pNA substrates; assay type: biochemical, Bacillus amyloliquefaciens; conditions: other: N62D/Y104D/G166D, 20 mM Tris-Cl pH 8.2, 4% DMSO, 25 C
Description: as §1, §2, §3

[10] = substrate: C[C@H](NC(=O)[C@H](CCCCN)NC(=O)CCC(=O)O)C(=O)N[C@@H](CCCCN)C(=O)N[C@@H](CCCNC(=N)N)C(=O)Nc1ccc([N+](=O)[O-])cc1; experiment: as above; assay type: biochemical, Bacillus amyloliquefaciens; conditions: other: N62D/Y104D/G166D, 20 mM Tris-Cl pH 8.2, 4% DMSO, 25 C
Description: as §1, §2, §3

succinyl-KAKR-pNA = target: T8, succinyl-KAKR-pNA
T8 sequence (peptide, N-terminal succinyl; C-terminal p-nitroanilide (pNA)): KAKR

succinyl-RAKR-pNA = target: T9, succinyl-RAKR-pNA
T9 sequence (peptide, N-terminal succinyl; C-terminal p-nitroanilide (pNA)): RAKR

C[C@H](NC(=O)CCC(=O)O)C(=O)N[C@@H](C)C(=O)N[C@@H](CCCCN)C(=O)N[C@@H](CCCNC(=N)N)C(=O)Nc1ccc([N+](=O)[O-])cc1 [succinyl-AAKR-pNA] (HELM PEPTIDE1{[O=C(O)CCC(=O)[*:2]].A.A.K.R.[O=[N+]([O-])c1ccc(N[*:1])cc1]}$$$$V2.0)
catalytic efficiency (kcat/Km), fold less efficiently hydrolyzed than succinyl-RAKR-pNA [1]: 60 fold | ratio of catalytic efficiency for succinyl-AAKR-pNA versus succinyl-AAPF-pNA [2]: 1.9×10^2

C[C@H](NC(=O)CCC(=O)O)C(=O)N[C@@H](C)C(=O)N[C@@H](CCCCN)C(=O)N[C@@H](CCCCN)C(=O)Nc1ccc([N+](=O)[O-])cc1 [Lys-Lys substrate] (HELM PEPTIDE1{[O=C(O)CCC(=O)[*:2]].A.A.K.K.[O=[N+]([O-])c1ccc(N[*:1])cc1]}$$$$V2.0)
ratio of catalytic efficiencies, times faster cleaved than the Lys-Phe substrate [3]: about 8 times | ratio of catalytic efficiencies, times faster cleaved than the Lys-Phe substrate ([2]; Lys-Lys versus Lys-Phe substrate): 18 times

B1: subtilisin BPN' from Bacillus amyloliquefaciens, wild type (WT), SEQ ID NO: 90 (Bacillus amyloliquefaciens) (protein)
chain: AQSVPYGVSQIKAPALHSQGYTGSNVKVAVIDSGIDSSHPDLKVAGGASMVPSETNPFQDNNSHGTHVAGTVAALNNSIGVLGVAPSASLYAVKVLGADGSGQYSWIINGIEWAIANNMDVINMSLGGPSGSAALKAAVDKAVASGVVVVAAAGNEGTSGSSSTVGYPGKYPSVIAVGAVDSSNQRASFSSVGPELDVMAPGVSIQSTLPGNKYGAYNGTSMASPHVAGAAALILSKHPNWTNTQVRSSLENTTTKLGDSFYYGKGLINVQAAAQ
notes: correct folding and maturation of subtilisin requires autolytic cleavage of its propeptide
Km ([4]; other: WT): 110 µM | kcat ([4]; other: WT): 29 s⁻¹ | kcat/Km ([4]; other: WT): 260000 M⁻¹ s⁻¹ | Km ([5]; other: WT): 1700 µM | kcat ([5]; other: WT): 2.8 s⁻¹ | kcat/Km, hydrolysis of succinyl-tetrapeptide-pNA (succinyl-AAKR-pNA): 1700 M⁻¹ s⁻¹ | kcat/Km, hydrolysis of succinyl-tetrapeptide-pNA (succinyl-AAPF-pNA): 260000 M⁻¹ s⁻¹

B2: subtilisin BPN' variant G166D (enzyme)
chain: AQSVPYGVSQIKAPALHSQGYTGSNVKVAVIDSGIDSSHPDLKVAGGASMVPSETNPFQDNNSHGTHVAGTVAALNNSIGVLGVAPSASLYAVKVLGADGSGQYSWIINGIEWAIANNMDVINMSLGGPSGSAALKAAVDKAVASGVVVVAAAGNEGTSGSSSTVDYPGKYPSVIAVGAVDSSNQRASFSSVGPELDVMAPGVSIQSTLPGNKYGAYNGTSMASPHVAGAAALILSKHPNWTNTQVRSSLENTTTKLGDSFYYGKGLINVQAAAQ
ratio of catalytic efficiencies, hydrolysis of succinyl-tetrapeptide-pNA (times faster than the Phe P1 substrate) [6]: 3

B3: subtilisin BPN' variant N62D/G166D (mature enzyme SEQ ID NO: 72) (Bacillus amyloliquefaciens; G273D/N169D) (protein)
chain: AQSVPYGVSQIKAPALHSQGYTGSNVKVAVIDSGIDSSHPDLKVAGGASMVPSETNPFQDNDSHGTHVAGTVAALNNSIGVLGVAPSASLYAVKVLGADGSGQYSWIINGIEWAIANNMDVINMSLGGPSGSAALKAAVDKAVASGVVVVAAAGNEGTSGSSSTVDYPGKYPSVIAVGAVDSSNQRASFSSVGPELDVMAPGVSIQSTLPGNKYGAYNGTSMASPHVAGAAALILSKHPNWTNTQVRSSLENTTTKLGDSFYYGKGLINVQAAAQ
notes: made in house; host or cells: Bacillus subtilis BG2036 (protease-deficient), secreted
Km ([4]; other: N62D/G166D): 1800 µM | kcat ([4]; other: N62D/G166D): 3.4 s⁻¹ | kcat/Km ([4]; other: N62D/G166D): 1900 M⁻¹ s⁻¹ | Km ([5]; other: N62D/G166D): 41 µM | kcat ([5]; other: N62D/G166D): 15 s⁻¹ | kcat/Km ([5]; other: N62D/G166D): 370000 M⁻¹ s⁻¹ | kcat/Km, hydrolysis of succinyl-tetrapeptide-pNA (succinyl-AAKR-pNA): 370000 M⁻¹ s⁻¹ | kcat/Km, hydrolysis of succinyl-tetrapeptide-pNA (succinyl-AAPF-pNA): 1900 M⁻¹ s⁻¹ | ratio of catalytic efficiencies, hydrolysis of succinyl-tetrapeptide-pNA (times faster than a Lys-Phe substrate) [7]: 18 | rate of cleavage of the fusion protein from the hGH receptor plate (released AP activity) [8]: 10

B4: subtilisin BPN' variant N62D/G166E (enzyme)
chain: AQSVPYGVSQIKAPALHSQGYTGSNVKVAVIDSGIDSSHPDLKVAGGASMVPSETNPFQDNDSHGTHVAGTVAALNNSIGVLGVAPSASLYAVKVLGADGSGQYSWIINGIEWAIANNMDVINMSLGGPSGSAALKAAVDKAVASGVVVVAAAGNEGTSGSSSTVEYPGKYPSVIAVGAVDSSNQRASFSSVGPELDVMAPGVSIQSTLPGNKYGAYNGTSMASPHVAGAAALILSKHPNWTNTQVRSSLENTTTKLGDSFYYGKGLINVQAAAQ
ratio of catalytic efficiencies, hydrolysis of succinyl-tetrapeptide-pNA (times faster than the Lys-Phe substrate) [7]: 8

B5: subtilisin BPN' variant N62D/Y104D/G166D (SEQ ID NO: 75) (Bacillus amyloliquefaciens; G273D/N169D/Y211D) (protein)
chain: AQSVPYGVSQIKAPALHSQGYTGSNVKVAVIDSGIDSSHPDLKVAGGASMVPSETNPFQDNDSHGTHVAGTVAALNNSIGVLGVAPSASLYAVKVLGADGSGQDSWIINGIEWAIANNMDVINMSLGGPSGSAALKAAVDKAVASGVVVVAAAGNEGTSGSSSTVDYPGKYPSVIAVGAVDSSNQRASFSSVGPELDVMAPGVSIQSTLPGNKYGAYNGTSMASPHVAGAAALILSKHPNWTNTQVRSSLENTTTKLGDSFYYGKGLINVQAAAQ
notes: the mature enzyme +1 to +275; made in house; host or cells: Bacillus subtilis BG2036 (protease-deficient), secreted
Km [9]: 23 µM | kcat [9]: 11 s⁻¹ | kcat/Km [9]: 490000 M⁻¹ s⁻¹ | Km ([5]; other: N62D/Y104D/G166D): 34 µM | kcat ([5]; other: N62D/Y104D/G166D): 0.27 s⁻¹ | kcat/Km ([5]; other: N62D/Y104D/G166D): 8100 M⁻¹ s⁻¹ | Km [10]: 29 µM | kcat [10]: 9.8 s⁻¹ | kcat/Km [10]: 340000 M⁻¹ s⁻¹ | kcat/Km, hydrolysis of succinyl-tetrapeptide-pNA (succinyl-KAKR-pNA): 340000 M⁻¹ s⁻¹ | kcat/Km, hydrolysis of succinyl-tetrapeptide-pNA (succinyl-AAKR-pNA): 8100 M⁻¹ s⁻¹ | kcat/Km, hydrolysis of succinyl-tetrapeptide-pNA (succinyl-AAPF-pNA): 8 M⁻¹ s⁻¹ | kcat/Km, hydrolysis of succinyl-tetrapeptide-pNA (succinyl-RAKR-pNA): 490000 M⁻¹ s⁻¹
